# Measured values from PMC2475631.
# T1: mut-Myogenin (Rattus norvegicus, UniProt P20428 1-287, R84K;K91R)
# T1 sequence: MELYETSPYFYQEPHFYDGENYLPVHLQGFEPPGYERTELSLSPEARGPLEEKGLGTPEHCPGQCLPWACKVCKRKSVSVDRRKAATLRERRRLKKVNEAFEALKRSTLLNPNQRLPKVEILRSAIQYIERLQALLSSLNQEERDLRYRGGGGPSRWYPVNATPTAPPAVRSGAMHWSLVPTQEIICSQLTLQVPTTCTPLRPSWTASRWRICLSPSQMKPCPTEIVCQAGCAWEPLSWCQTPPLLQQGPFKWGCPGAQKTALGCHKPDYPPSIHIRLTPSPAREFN
# T2: MRF4 (Rattus norvegicus, UniProt P19335 1-242)
# T2 sequence: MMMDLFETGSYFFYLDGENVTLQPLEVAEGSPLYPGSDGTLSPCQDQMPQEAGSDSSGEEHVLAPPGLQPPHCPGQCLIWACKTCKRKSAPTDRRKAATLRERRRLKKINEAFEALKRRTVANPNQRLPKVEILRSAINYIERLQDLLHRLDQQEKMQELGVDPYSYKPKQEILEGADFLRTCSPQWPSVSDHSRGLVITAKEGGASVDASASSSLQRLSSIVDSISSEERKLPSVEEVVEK
# T3: Myogenin;E47 (Rattus norvegicus;Mus musculus, UniProt P20428;P15806-2 1-287;1-648, |)
# T3 sequence 1: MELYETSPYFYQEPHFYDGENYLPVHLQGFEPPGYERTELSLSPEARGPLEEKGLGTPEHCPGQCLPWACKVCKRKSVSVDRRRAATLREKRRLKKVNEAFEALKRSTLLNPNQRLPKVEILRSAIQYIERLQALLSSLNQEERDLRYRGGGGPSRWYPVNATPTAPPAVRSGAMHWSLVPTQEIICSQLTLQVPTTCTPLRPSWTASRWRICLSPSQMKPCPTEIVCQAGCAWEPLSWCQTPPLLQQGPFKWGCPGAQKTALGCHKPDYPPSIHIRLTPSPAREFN
# T3 sequence 2: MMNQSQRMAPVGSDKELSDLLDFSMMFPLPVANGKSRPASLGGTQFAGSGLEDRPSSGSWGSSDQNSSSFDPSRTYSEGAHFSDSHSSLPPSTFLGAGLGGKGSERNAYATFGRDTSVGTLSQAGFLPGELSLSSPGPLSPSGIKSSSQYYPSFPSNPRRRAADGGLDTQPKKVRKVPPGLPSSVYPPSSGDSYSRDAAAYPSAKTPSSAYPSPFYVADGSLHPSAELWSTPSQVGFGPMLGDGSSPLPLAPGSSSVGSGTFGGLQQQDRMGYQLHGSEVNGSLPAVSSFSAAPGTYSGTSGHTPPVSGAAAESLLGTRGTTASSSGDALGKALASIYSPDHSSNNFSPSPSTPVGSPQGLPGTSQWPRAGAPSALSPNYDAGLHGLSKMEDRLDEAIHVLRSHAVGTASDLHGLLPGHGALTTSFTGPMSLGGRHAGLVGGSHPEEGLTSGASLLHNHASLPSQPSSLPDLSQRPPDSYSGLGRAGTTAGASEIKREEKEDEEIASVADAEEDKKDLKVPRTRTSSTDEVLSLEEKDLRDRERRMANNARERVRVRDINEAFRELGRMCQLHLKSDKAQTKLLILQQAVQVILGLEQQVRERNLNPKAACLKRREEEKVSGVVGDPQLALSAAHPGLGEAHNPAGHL
# T4: Myogenin/MyoDb chimera (Rattus norvegicus; Mus musculus basic …, UniProt P20428 1-73+P10085:102-121+94-287, internal_change)
# T4 sequence: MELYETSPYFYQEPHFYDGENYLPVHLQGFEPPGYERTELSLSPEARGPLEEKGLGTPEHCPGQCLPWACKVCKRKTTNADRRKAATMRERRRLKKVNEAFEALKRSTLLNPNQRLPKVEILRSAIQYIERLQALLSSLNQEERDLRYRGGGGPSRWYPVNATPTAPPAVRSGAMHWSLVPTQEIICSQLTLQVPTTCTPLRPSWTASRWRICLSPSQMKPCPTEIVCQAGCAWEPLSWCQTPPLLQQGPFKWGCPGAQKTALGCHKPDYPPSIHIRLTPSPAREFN
# T5: MRF4;E47 (Rattus norvegicus;Mus musculus, UniProt P19335;P15806-2 1-242;1-648, |)
# T5 sequence 1: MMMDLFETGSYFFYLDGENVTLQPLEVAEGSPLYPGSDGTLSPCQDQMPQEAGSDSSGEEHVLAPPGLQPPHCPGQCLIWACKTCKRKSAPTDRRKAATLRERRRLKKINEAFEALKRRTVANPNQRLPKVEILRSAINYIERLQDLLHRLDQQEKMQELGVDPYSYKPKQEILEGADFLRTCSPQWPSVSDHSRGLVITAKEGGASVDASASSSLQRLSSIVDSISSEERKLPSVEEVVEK
# T5 sequence 2: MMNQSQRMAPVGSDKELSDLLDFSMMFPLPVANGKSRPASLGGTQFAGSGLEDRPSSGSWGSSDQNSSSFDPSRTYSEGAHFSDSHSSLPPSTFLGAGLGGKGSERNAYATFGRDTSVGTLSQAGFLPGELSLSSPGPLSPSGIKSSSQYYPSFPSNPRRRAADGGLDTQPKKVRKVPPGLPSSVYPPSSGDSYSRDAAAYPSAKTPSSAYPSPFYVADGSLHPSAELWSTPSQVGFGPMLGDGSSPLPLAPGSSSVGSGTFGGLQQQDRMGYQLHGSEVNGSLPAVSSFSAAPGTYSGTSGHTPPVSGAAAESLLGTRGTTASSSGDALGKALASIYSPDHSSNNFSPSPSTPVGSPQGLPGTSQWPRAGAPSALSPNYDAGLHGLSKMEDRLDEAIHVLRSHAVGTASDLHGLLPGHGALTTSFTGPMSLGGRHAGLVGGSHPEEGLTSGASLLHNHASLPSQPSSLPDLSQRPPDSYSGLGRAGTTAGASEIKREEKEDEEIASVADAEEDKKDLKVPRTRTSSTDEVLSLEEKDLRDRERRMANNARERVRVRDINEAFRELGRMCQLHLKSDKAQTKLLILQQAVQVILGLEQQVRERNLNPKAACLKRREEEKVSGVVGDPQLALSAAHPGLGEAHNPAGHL
# T6: Myogenin (Rattus norvegicus, UniProt P20428 1-287)
# T6 sequence: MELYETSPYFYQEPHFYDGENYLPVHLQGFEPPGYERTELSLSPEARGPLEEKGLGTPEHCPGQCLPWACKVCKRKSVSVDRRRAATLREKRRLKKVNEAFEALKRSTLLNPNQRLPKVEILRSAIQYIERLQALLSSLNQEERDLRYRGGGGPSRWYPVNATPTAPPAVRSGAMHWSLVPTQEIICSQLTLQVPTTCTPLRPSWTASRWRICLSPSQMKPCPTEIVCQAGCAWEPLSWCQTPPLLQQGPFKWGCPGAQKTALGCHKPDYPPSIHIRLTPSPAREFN
# B1: G'2 integrin DNA (structured_DNA)
# DNA: CATGGGGGCGGGAAGGGGCGGGGTCT
# B2: E-box DNA (dsDNA)
# DNA 1: TCGATCCCCCAACACCTGCTGCCTGA
# DNA 2: TCAGGCAGCAGGTGTTGGGGGACGA
# B3: G'2 sMtCK DNA (structured_DNA)
# DNA: CTGAGGAGGGGCTGGAGGGACCAC
# Assays:
# Assay in all cases: EMSA
# mut-Myogenin = molecular target: T1, mut-Myogenin
# MyoD;E47 [1] = molecular target: T7, MyoD;E47 (Mus musculus;Mus musculus, UniProt P10085;P15806-2 1-318;1-648, |)
# MRF4 = molecular target: T2, MRF4
# Myogenin;E47 [2] = molecular target: T3, Myogenin;E47
# Myogenin/MyoDb chimera = molecular target: T4, Myogenin/MyoDb chimera
# MRF4;E47 = molecular target: T5, MRF4;E47
# Myogenin = molecular target: T6, Myogenin
# MyoD = MyoD (Mus musculus, UniProt P10085 1-318)
# MyoD/Myogeninb chimera = MyoD/Myogeninb chimera (Mus musculus; Rattus norvegicus basic …, UniProt P10085 1-101+P20428:74-93+122-318, internal_change)
# MyoD;E47 [3] = molecular target: T7, MyoD;E47; remark: listed apart in the source
# Myogenin;E47 [4] = molecular target: T3, Myogenin;E47; remark: listed apart in the source
Binder,binding result (mut-Myogenin),Kd (MyoD;E47 [1]) [nM],Kd (MRF4) [nM],Kd (Myogenin;E47 [2]) [nM],Kd (Myogenin/MyoDb chimera) [nM],Kd (MRF4;E47) [nM],Kd (Myogenin) [nM],Kd (MyoD) [nM],Kd (MyoD/Myogeninb chimera) [nM],binding result (MRF4),binding signal (MyoD;E47 [3]) [fold weaker than E-box],binding signal (Myogenin;E47 [4]) [fold weaker than E-box]
B1,binds,11.2 ± 4.3,5.3 ± 1.3,8.5 ± 2,7.1 ± 1.9,19.5 ± 2.7,30 ± 8,4.4 ± 2.5,6 ± 3.1,–,–,–
B2,–,1.7 ± 0.6,21.3 ± 11,0.2 ± 0.1,–,0.2 ± 0.1,25.4 ± 11,91.8 ± 1.6,–,–,–,–
B3,–,–,–,–,–,–,–,–,–,binds,15,128
